Test results reported in paper PMC4025573.

Key:
purified protein [1] = substrate: CC(C)C(=O)C(=O)O; test: purified protein; conditions: pH 7.5; 25.0 °C
purified protein [2] = substrate: CC(=O)SCCNC(=O)CCNC(=O)[C@H](O)C(C)(C)COP(=O)(O)OP(=O)(O)OC[C@H]1O[C@@H](n2cnc3c(N)ncnc32)[C@H](O)[C@@H]1OP(=O)(O)O; test: purified protein; conditions: pH 7.5; 25.0 °C

B1: MtIPMS (α-isopropylmalate synthase from Mycobacterium tuberculosis) (Mycobacterium tuberculosis H37Rv) (protein)
chain: MTTSESPDAYTESFGAHTIVKPAGPPRVGQPSWNPQRASSMPVNRYRPFAEEVEPIRLRNRTWPDRVIDRAPLWCAVDLRDGNQALIDPMSPARKRRMFDLLVRMGYKEIEVGFPSASQTDFDFVREIIEQGAIPDDVTIQVLTQCRPELIERTFQACSGAPRAIVHFYNSTSILQRRVVFRANRAEVQAIATDGARKCVEQAAKYPGTQWRFEYSPESYTGTELEYAKQVCDAVGEVIAPTPERPIIFNLPATVEMTTPNVYADSIEWMSRNLANRESVILSLHPHNDRGTAVAAAELGFAAGADRIEGCLFGNGERTGNVCLVTLGLNLFSRGVDPQIDFSNIDEIRRTVEYCNQLPVHERHPYGGDLVYTAFSGSHQDAINKGLDAMKLDADAADCDVDDMLWQVPYLPIDPRDVGRTYEAVIRVNSQSGKGGVAYIMKTDHGLSLPRRLQIEFSQVIQKIAEGTAGEGGEVSPKEMWDAFAEEYLAPVRPLERIRQHVDAADDDGGTTSITATVKINGVETEISGSGNGPLAAFVHALADVGFDVAVLDYYEHAMSAGDDAQAAAYVEASVTIASPAQPGEAGRHASDPVTIASPAQPGEAGRHASDPVTSKTVWGVGIAPSITTASLRAVVSAVNRAAR
Question: Which Km (purified protein [1]) does the source give for B1 here?
Answer: 6.4 ± 1.4 µM

Question: And the kcat/Km (purified protein [1])?
Answer: 500000 ± 130000 M⁻¹ s⁻¹

Question: What about the Km (purified protein [2]) of the same protein?
Answer: 42 ± 12 µM

Question: And the kcat/Km (purified protein [2])?
Answer: 80000 ± 20000 M⁻¹ s⁻¹
